Assay results from patent US8173596B2, “Prouroguanylin, and synthetic analogs or proteolytic cleavage products derived from it, as therapeutic and diagnostic agents for diseases involving salt and/or fluid homeostasis” (The University of North Carolina at Chapel Hill, priority 2004, dated 2012).
“Also recorded” adds a separate entry of the source.

B1: proguanylin (protein, listed as Rattus norvegicus)
chain: MNAWLLSVLCLLGALAVLVEGVTVQDGDLSFPLESVKQLKHLREVQEPTLMSHKKFALRLPKPVAPELCSQSAFPEALRPLCEKPNAEEILQRLEAIAQDPNTCEICAYAACTGC
notes: propeptide of Gn15
B2: prouroguanylin (protein, listed as Rattus norvegicus)
chain: VYIKYHGFQVQLESVKKLNELEEKQMSDPQQQKSGLLPDVCYNPALPLDLQPVCASQEAASTFKALRTIATDECELCINVACTGC
notes: propeptide of UGn18
B3: ^35S-proUGn: proUGn prepared by coupled in vitro transcription/translation in the presence of 35S-Cys and 35S-Met (protein)
chain: B2 chain

Legend:
GC-C = biological target: T1, GC-C (Homo sapiens, UniProt P25092); conditions: other reports (Hamra et al. 1996); cited from earlier work
T1 construct: endogenous in cells; host or cells: T84 cells
T1 sequence (P25092 24-1073): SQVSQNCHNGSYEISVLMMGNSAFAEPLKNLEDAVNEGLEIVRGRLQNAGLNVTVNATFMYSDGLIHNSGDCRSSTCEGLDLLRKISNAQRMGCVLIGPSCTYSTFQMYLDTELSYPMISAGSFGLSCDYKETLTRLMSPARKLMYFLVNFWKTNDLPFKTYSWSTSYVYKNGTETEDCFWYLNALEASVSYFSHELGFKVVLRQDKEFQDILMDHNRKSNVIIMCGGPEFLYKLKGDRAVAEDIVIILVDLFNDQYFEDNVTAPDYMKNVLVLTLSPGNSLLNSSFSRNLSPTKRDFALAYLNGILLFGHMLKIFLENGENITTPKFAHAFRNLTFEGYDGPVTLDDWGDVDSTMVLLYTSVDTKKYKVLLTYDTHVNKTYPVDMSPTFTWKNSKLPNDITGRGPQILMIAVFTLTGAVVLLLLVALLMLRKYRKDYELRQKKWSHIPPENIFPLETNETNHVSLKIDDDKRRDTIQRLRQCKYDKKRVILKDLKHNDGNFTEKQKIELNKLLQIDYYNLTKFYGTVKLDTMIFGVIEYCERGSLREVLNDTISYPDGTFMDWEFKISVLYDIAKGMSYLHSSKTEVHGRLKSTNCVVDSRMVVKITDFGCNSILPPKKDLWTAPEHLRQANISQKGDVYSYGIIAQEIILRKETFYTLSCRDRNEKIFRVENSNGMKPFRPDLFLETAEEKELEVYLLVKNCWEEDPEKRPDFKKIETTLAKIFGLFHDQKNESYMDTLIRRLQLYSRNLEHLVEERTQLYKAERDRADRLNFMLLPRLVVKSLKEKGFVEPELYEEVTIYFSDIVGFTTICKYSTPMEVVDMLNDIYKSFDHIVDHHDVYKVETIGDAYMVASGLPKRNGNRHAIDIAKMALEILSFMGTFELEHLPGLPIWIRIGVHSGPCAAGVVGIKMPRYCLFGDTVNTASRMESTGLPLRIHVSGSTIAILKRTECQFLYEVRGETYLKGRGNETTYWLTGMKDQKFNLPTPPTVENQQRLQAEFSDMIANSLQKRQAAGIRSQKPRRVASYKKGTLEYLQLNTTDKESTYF

anesthetized rats = experiment: Diuresis and natriuresis induced by infused native proUGn in anesthetized rats; type: in vivo, rat
Method: (§1) Experiments were performed with 200-250 g male Sprague Dawley rats (Charles River Laboratories, Wilmington, Mass., United States of America). Rat test diets were obtained from a commercial supplier (Harlan Teklad, Madison, Wis., United States of America). For some experiments, anephric animals were prepared by surgical acute ligation of the renal pedicles. As necessary, animals were anesthetized with Nembutal (60 mg/kg body weight ip).
Na, K, and fluid excretion: Na and K concentrations are analyzed on an IF model 943 flame photometer (Instrumentation Laboratory Company, Lexington, Mass., United States of America). Urine is collected from ureteric canulae or by the use of metabolic cages. Urine volume is determined gravimetrically.
Native proUGn is purified from rat small intestine. Animals are sacrificed by anesthetic overdose, and approximately 20 cm of proximal small intestine is removed. The tissue is cut longitudinally, rinsed with saline, and the mucosal layer is isolated by scraping with a microscope slide. Scraped material is snap-frozen on a metal plate chilled to −78.5° C., then homogenized in 50 mM HEPES, pH 7.4, containing protease inhibitor. The homogenate is cleared by centrifugation at 50,000×g, and the supernate is fractionated sequentially by HPLC on a MonoQ anion exchange column and a VYDAC C-18 reverse-phase column. The HPLC chromatogram of this second chromatography step is shown in FIG. 10a, with a Western blot of the individual HPLC fractions shown in the inset, confirming the presence of proUGn. The purified material was dried to remove the HPLC solvents and resuspended in physiological saline. Recovery is measured by quantitative proUGn immunoassay.
Native proUGn is infused for 60 min into a group of 5 anesthetized rats, the standard infusion containing approximately 180-pmol peptide. Given an estimated rat plasma volume of 10 mL, the infusion rate was approximately […]. Blood pressure, urine production, and sodium excretion were monitored for approximately 40 minutes prior to the infusion, during the infusion, and for approximately 50 minutes after the infusion to measure the effect of the proUGn on diuresis and natriuresis. For comparison, a control group of five rats was infused with regular saline, one rat was infused with a solution of proUGn that had been neutralized by incubation with antibodies 6910 and 6912, and one rat was infused with a solution containing STa at 5 μg/kg/hr.

[1] = HPLC analysis of proUGn metabolites in plasma and urine; type: in vivo, rat
Method: Unless otherwise stated, HPLC conditions for the detection and identification of proUGn and related peptides are as follows: Vydac 218TP™ C-18 reverse-phase column (Grace Vydac, Hesperica, Calif., United States of America); equilibration of the column with H2O with 0.1% TFA for 25 minutes, followed by a 30 minutes gradient from 0% acetonitrile (with 0.1% TFA) to 50% acetonitrile (with 0.1% TFA), 5 min wash with 100% acetonitrile (0.1% TFA).
Plasma samples were taken 2, 5, and 10 min after bolus injection of ^35S-proUGn (about 10^6 cpm) into the carotid artery (n=2 for each timepoint). Urine was collected for 30 min at the end of a 60 min arterial infusion of ^35S-proUGn (n=7). The cpm/μL in the infused material was approximately 100 times lower than the cpm/μL in the solution used for the bolus injection. Plasma and urine samples were applied to the HPLC column and eluted, with the radioactivity in each fraction measured in a scintillation counter.

[2] = Kidney clearance and tissue fate of infused or bolus-injected 35S-proUGn; type: in vivo, rat
Method: as §1
Radioactive proUGn was prepared by coupled in vitro transcription/translation in the presence of ^35S-Cys and ^35S-Met from a cDNA template that encoded full-length proUGn (minus the signal peptide).
A solution containing radioactively-labeled r-proUGn was infused by iv into anesthetized rats for 60 min. The concentration of radioactivity in the plasma and the urine was measured via scintillation counting at timepoints throughout the infusion. […] At the end of the 60 min infusion, tissue samples were collected from the brain, thymus, lung, small intestine, skeletal muscle, spleen, heart, kidney, and liver and assayed for radioactivity by scintillation counting.
To measure the rate of kidney clearance of proUGn, plasma levels of ^35S-proUGn were monitored following bolus injection of the radiolabelled propeptide. Bolus injections (about 10^6 cpm) were given to groups of control (i.e., normal) rats and to anephric rats. At various timepoints after the injection, blood samples were removed and fractionated by HPLC. Radioactivity in each HPLC fraction was measured in a scintillation counter. […] Taken together, the results from these experiments indicate that the kidney appears to be the major route of clearance for proUGn.

[3] = steady iv infusion over 60 min, FIG. 8a

| Molecule | activation of GC-C (GC-C) | sodium excretion following proUGn infusion (anesthetized rats; 60 min infusion of approximately 180 pmol peptide, after infusion) | sodium excretion (anesthetized rats; 60 min infusion, FIG. 10c) | urine flow (anesthetized rats; 60 min infusion, anesthetized rats, FIG. 10b) | onset of the response to proUGn (anesthetized rats; after beginning infusion) | duration of the response to proUGn (anesthetized rats; after terminating the infusion) | sodium excretion before proUGn infusion (anesthetized rats; baseline of the infused animals) | natriuretic response compared with responses reported in the literature for UGn18 (anesthetized rats; comparison with literature UGn18 infusion) | increase in urine production (anesthetized rats; infusing exogenous proUGn into the bloodstream) | integrity in plasma (HPLC of radiolabelled species) ([1]; plasma 2, 5, 10 min after bolus injection, FIG. 9a) | radioactive species in urine (HPLC) ([1]; urine collected 30 min at end of 60 min infusion, FIG. 9b) | clearance from plasma, control versus anephric rats ([2]; bolus injection about 10^6 cpm, FIG. 8c) | tissue distribution of radioactivity ([2]; end of 60 min infusion, brain, thymus, lung, small intestine, skeletal muscle, spleen, heart, kidney, liver, FIG. 8b) | plasma level of radioactivity [2, 3] | urine level of radioactivity [2, 3] |
| --- | --- | --- | --- | --- | --- | --- | --- | --- | --- | --- | --- | --- | --- | --- | --- |
| B1 | inability |  |  |  |  |  |  |  |  |  |  |  |  |  |  |
| B2 | inability | 3200 nmol/min | mirrored the increase in urine flow rate | increase in urine flow | 20 to 40 min | more than several hours | 60 nmol/min | many times greater | ≤ 50 fold |  |  |  |  |  |  |
| B3 |  |  |  |  |  |  |  |  |  | appears to remain intact in plasma | at least two, and possibly three, proUGn-related products | cleared more quickly in the control animals; also recorded: cleared rapidly from the plasma of a normal animal | only the kidney samples contained significant levels of radioactivity; also recorded: specific activity of labeling in the kidney is greater than in any other tissue | remained steady; also recorded: stable plasma level of radioactivity | increased dramatically |
